Experimental data: US20220363757A1 (SYMPHOGEN A S, published 2022)

T1: human LAG-3 domain 1-2 Fc fusion, point mutation #32 H85A (human, UniProt P18627 23-266)
T1 construct: not shown: human IgG1 Fc, AA P101-K330
T1 sequence: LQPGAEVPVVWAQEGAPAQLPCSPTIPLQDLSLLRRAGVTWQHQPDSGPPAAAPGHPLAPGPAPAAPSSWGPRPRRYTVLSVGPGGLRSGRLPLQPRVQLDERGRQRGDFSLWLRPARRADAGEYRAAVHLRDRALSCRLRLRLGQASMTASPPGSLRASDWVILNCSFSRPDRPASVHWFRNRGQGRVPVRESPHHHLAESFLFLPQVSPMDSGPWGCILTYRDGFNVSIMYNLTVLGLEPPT

T2: human LAG-3 domain 1-2 Fc fusion, point mutation #8 Q51A (human, UniProt P18627 23-266)
T2 construct: not shown: human IgG1 Fc, AA P101-K330
T2 sequence: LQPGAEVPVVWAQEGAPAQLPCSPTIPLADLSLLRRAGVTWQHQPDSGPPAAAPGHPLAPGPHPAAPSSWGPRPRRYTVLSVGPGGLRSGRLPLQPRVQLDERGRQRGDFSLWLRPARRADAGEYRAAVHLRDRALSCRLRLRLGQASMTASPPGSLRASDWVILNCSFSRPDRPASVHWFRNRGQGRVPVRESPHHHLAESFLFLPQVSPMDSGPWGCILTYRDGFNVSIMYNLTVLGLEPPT

T3: human LAG-3 domain 1-2 Fc fusion, point mutation #30 G83A (human, UniProt P18627 23-266)
T3 construct: not shown: human IgG1 Fc, AA P101-K330
T3 sequence: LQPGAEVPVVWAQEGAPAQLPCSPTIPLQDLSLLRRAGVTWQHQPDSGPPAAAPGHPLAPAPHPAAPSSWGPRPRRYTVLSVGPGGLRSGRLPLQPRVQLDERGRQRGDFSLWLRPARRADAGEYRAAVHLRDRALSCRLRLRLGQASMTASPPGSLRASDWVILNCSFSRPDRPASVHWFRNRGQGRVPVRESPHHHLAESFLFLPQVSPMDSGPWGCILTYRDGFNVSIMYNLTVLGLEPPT

T4: human LAG-3 domain 1-2 Fc fusion, point mutation #70 G130A (human, UniProt P18627 23-266)
T4 construct: not shown: human IgG1 Fc, AA P101-K330
T4 sequence: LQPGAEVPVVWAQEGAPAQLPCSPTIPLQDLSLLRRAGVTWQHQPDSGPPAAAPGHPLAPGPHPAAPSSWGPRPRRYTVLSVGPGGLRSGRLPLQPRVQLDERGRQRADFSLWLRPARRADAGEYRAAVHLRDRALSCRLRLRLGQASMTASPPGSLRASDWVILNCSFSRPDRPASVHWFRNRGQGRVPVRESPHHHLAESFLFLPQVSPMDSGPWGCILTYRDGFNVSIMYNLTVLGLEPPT

T5: human LAG-3 domain 1-2 Fc fusion, point mutation #64 E124A (human, UniProt P18627 23-266)
T5 construct: not shown: human IgG1 Fc, AA P101-K330
T5 sequence: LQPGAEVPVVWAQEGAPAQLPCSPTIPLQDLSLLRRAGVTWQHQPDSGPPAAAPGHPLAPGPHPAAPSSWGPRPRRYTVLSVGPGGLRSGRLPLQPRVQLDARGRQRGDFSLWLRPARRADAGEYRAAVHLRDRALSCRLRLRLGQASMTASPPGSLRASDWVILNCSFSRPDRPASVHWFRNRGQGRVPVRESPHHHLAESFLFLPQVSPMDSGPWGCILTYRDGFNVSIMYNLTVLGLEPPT

T6: human LAG-3 domain 1-2 Fc fusion, point mutation #18 P67A (human, UniProt P18627 23-266)
T6 construct: not shown: human IgG1 Fc, AA P101-K330
T6 sequence: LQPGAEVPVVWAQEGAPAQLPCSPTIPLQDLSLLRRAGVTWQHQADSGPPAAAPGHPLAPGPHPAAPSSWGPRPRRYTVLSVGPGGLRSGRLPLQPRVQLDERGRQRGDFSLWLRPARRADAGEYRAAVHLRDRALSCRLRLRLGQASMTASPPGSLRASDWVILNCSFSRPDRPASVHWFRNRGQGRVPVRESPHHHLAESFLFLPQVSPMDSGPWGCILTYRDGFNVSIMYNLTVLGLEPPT

T7: human LAG-3 domain 1-2 Fc fusion, point mutation #16 H65A (human, UniProt P18627 23-266)
T7 construct: not shown: human IgG1 Fc, AA P101-K330
T7 sequence: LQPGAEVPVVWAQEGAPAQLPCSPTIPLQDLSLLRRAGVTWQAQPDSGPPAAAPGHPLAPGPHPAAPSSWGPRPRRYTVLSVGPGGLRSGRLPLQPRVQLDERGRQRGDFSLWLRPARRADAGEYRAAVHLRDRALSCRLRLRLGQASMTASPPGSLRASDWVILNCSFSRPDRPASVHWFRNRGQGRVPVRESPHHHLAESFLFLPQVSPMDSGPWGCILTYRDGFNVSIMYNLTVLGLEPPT

T8: human LAG-3 domain 1-2 Fc fusion, point mutation #7 P49A (human, UniProt P18627 23-266)
T8 construct: not shown: human IgG1 Fc, AA P101-K330
T8 sequence: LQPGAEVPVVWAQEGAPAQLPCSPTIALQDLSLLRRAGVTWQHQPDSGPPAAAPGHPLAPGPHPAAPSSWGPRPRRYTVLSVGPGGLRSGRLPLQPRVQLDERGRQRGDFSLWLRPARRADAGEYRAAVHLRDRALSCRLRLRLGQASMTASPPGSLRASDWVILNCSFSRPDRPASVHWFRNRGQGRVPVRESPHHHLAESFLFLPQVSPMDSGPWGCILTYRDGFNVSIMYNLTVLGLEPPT


How the values were obtained:
Assay in all cases: SPR, Fab over captured mutant LAG-3-Fc;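 also: fc fusion variants captured on anti-human IgG Fc sensor, Fab injected with association then dissociation phases, KD obtained from Langmuir one-to-one fit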
[1] = target: T1, human LAG-3 domain 1-2 Fc fusion, point …
Description: (§1) The LAG-3 fusion proteins were immobilized onto a G-a-hu-IgG Fc SensEye® (Ssens BV, The Netherlands) for 15 minutes using a Continuous Flow Microspotter (CFM, Wasatch Microfluidics, Salt Lake City, US). After spotting, the SensEye® was positioned in an IBIS MX96 biosensor and captured proteins were evaluated for binding affinity. […] Fab association was performed for 15 minutes and antigen dissociation was performed for 15 minutes. The recorded binding responses were fitted to a simple Langmuir 1:1 binding model with Scrubber 2 software for calculation of the on-rate (kon or ka), off-rate (koff or kd) and affinity (KD) constants.

[2] = target: T2, human LAG-3 domain 1-2 Fc fusion, point …
Description: as §1

[3] = target: T3, human LAG-3 domain 1-2 Fc fusion, point …
Description: as §1

[4] = target: T4, human LAG-3 domain 1-2 Fc fusion, point …
Description: as §1

[5] = target: T5, human LAG-3 domain 1-2 Fc fusion, point …
Description: as §1

[6] = target: T6, human LAG-3 domain 1-2 Fc fusion, point …
Description: as §1

[7] = target: T7, human LAG-3 domain 1-2 Fc fusion, point …
Description: as §1

[8] = target: T8, human LAG-3 domain 1-2 Fc fusion, point …
Description: as §1

| Binder | KD mutant/KD wild type [1] | KD mutant/KD wild type [2] | KD mutant/KD wild type [3] | binding result [4] | binding result [5] | binding result [6] | binding result [7] | binding result [8] | KD mutant/KD wild type [4] | KD mutant/KD wild type [5] | KD mutant/KD wild type [6] | KD mutant/KD wild type [7] | KD mutant/KD wild type [8] |
| --- | --- | --- | --- | --- | --- | --- | --- | --- | --- | --- | --- | --- | --- |
| Fab fragment of antibody 15572 (Fab, V domains shown, not shown: a dimerising Fc or GST, monomeric Fab made by GingisKHAN digestion of the IgG1) VH: QLQLQESGPGLVKPSETLSLTCTVSGDSISSSSYYWGWIRQPPGKGLEWIGSIFYSGNTYYNPSLKSRVTISVDTSKNQFSLKLSSVTAADTAVYYCAREDDFLTDYYGAFDIWGQGTMVTVSS VL: not shown | 0.7 fold | 0.6 fold | 0.5 fold | no binding (tested: 300 nM) | no binding (tested: 300 nM) | no binding (tested: 300 nM) | no binding (tested: 300 nM) | no binding (tested: 300 nM) |  |  |  |  |  |
| Fab fragment of antibody 15532 (Fab, V domains shown, not shown: a dimerising Fc or GST, monomeric Fab made by GingisKHAN digestion of the IgG1) VH: QVQLQQWGAGLLRPSETLSLTCAVYGESFSGYYWNWIRQPPGKGLEWIGEINHSGSTNYNPSLKSRVTISVDTSKTQFSLKLSSVTAADTAVYYCARGWDLLDWNDYWNEYWGQGTLVTVSS VL: EIVLTQSPATLSLSPGERATLSCRASQSVSSYLAWYQQKPGQAPRLLIYDASNRATGIPARFSGSGSGTDFTLTISSLEPEDFAVYYCQQRSNWPLTFGGGTKVEIKR | 7.2 fold | 0.9 fold | 1.1 fold |  |  |  |  |  | 4.4 fold | 1.8 fold | 3.8 fold | 3.8 fold | 1.7 fold |
| Fab fragment of antibody 15431 (Fab, V domains shown, not shown: a dimerising Fc or GST, monomeric Fab made by GingisKHAN digestion of the IgG1) VH: QVQLQQSGPGLVKPSQTLSLTCAISGDSVSSNSAAWNWIRQSPSRGLEWLGRTYYRSKWYNDYAVSVKSRITINPDTSKNQFSLQLNSVTPEDTAVYYCARDDDWNDFDYWGQGTLVTVSS VL: EIVLTQSPATLSLSPGERATLSCRASQSVSSYLAWYQQKPGQAPRLLIYDASNRATGIPARFSGSGSGTDFTLTISSLEPEDFAVYYCQQRSNWPLTFGGGTKVEIKR | 0.8 fold | 0.7 fold | 0.5 fold | no binding (tested: 300 nM) | no binding (tested: 300 nM) | no binding (tested: 300 nM) | no binding (tested: 300 nM) | no binding (tested: 300 nM) |  |  |  |  |  |
| Fab fragment of antibody 15011 (Fab, V domains shown, not shown: a dimerising Fc or GST, monomeric Fab made by GingisKHAN digestion of the IgG1) VH: EVQLLESGGGLVQPGGSLRLSCAASGFDFRSYAMMWVRQAPGKGLEWVGGINGEVGGSNTYYAPAVKGRATISRDNSKNTLYLQMNSLRAEDTAVYYCVKGAGACGICNDDIDAWGQGTLVTVSS VL: SYELTQDPAVSVALGQTVRITCSGAGSYAGSYYYGWHQQKPGQAPVTVIYDNDKRPSNIPDRFSGSSSGNTASLTITGAQAEDEADYYCGSTNDNDDGGLFGSGTKVTVLG | 0.9 fold | 0.8 fold | 0.7 fold |  |  |  |  |  | 0.6 fold | 0.8 fold | 0.6 fold | 0.5 fold | 0.8 fold |
